{"source": "patent US9926375B2", "about": "“Anti-endoglin antibodies and uses thereof” (Tracon Pharmaceuticals, Inc., priority 2014, dated 2018)", "key": {"[1]": {"target": "T1, mouse endoglin (Mus musculus, UniProt Q63961)", "T1 construct": "purchased R&D Systems 1320-EN-025", "T1 sequence (Q63961 27-581 limits assumed)": "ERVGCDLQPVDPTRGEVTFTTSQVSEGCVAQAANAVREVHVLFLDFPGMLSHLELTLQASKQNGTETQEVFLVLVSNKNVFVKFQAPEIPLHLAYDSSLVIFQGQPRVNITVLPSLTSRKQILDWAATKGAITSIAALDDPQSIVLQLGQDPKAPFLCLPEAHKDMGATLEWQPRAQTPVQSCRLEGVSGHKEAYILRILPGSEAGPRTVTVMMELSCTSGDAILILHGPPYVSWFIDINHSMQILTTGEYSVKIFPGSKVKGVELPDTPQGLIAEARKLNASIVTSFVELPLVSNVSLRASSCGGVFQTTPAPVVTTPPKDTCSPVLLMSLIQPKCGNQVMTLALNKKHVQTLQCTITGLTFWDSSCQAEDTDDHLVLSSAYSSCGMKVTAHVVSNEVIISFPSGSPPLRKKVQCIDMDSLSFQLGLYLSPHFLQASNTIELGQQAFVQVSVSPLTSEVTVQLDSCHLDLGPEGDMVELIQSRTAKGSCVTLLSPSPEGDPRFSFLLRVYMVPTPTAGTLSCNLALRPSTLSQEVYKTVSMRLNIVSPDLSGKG", "test": "ELISA binding of M1043 antibody to mouse endoglin", "conditions": "10 μg/ml to 0.014 μg/ml; plate coated with mouse endoglin 1 μg/ml", "method": "An ELISA was established to determine the binding of M1043 antibody to mouse endoglin as follows: Nunc Immuno MaxiSorp 96 well flat bottom plates (Fisher, Cat. No. DIS-971-030J) were coated with mouse endoglin (R&D Systems, Cat. No. 1320-EN-025) at 1 μg/ml in PBS overnight at 4° C. The following day the plate was washed three times with PBST before blocking with PBST/3% Marvel at room temperature for 1 hour. After blocking, the plate was washed three times with PBST, and varying concentrations (10 μg/ml to 0.014 μg/ml in three-fold serial dilutions) of either M1043 or an irrelevant rat IgG1 (Affymetrix, Cat. No. 14-4301) in PBST/3% Marvel were added to the plate and incubated for 1 hour at room temperature. Binding of the antibodies was detected via anti-rat IgG peroxidase (Sigma, Cat. No. A9037) and TMB single solution substrate (Invitrogen, Cat. No. 00-2023). The reaction was stopped by adding 3 M HCl and OD450 nm values were measured on a Dynex MRX TCII plate reader."}, "[2]": {"system": "NASH mice", "test": "Murine model of non-alcoholic steatohepatitis (NASH; STZ and high fat diet)", "type": "in vivo, mouse", "method_in_brief": "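NASH induced in mice by single postnatal subcutaneous STZ plus high-fat diet from 4 weeks of age; groups of 10 dosed from day 63 with antibodies i.v. at 10 mg/kg twice weekly or telmisartan orally 10 mg/kg daily to day 84. At 12 weeks, H&E liver sections scored for NAFLD Activity Score (0–8); Bonferroni test, P<0.05.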"}, "[3]": {"conditions": "liver gene expression, mean ± SD, Normal-Vehicle 1.0"}}, "note": "Entries after “also recorded” stand apart in the source; their conditions may differ."}
{"molecule": "M1043: rat IgG1 antibody that binds mouse endoglin and competitively inhibits mouse BMP binding; VH SEQ ID NO: 124, VL SEQ ID NO: 125 (antibody, V domains shown) VH: QVQLQQSGAELVKPGSSVKISCKASGYTFTSYDMHWIKQQPGNGLEWIGWIYPGNGNTKYNQKFNGKATLTADKSSSTAYMQLSSLTSEDSAVYFCARGKFGVGDYWGQGVMVTVSS VL: DTVLTQSPALAVSPGERVSISCRASEGVNSYMHWYQQKPGQQPKLLIYIASNLASGVPARFSGSGSGTDFTLTIDPVEADDTATYFCQQSWNDPYTFGAGTKLELKR", "values": [{"measurement": "Binding to mouse endoglin (ELISA)", "setting": "[1]", "result": "binds specifically to mouse endoglin"}, {"measurement": "Liver triglyceride contents compared with the NASH-Vehicle group", "setting": "[2]; Bonferroni, P<0.05", "result": "significant decreases"}, {"measurement": "Mean liver weight compared with the NASH-Vehicle group", "setting": "[2]; Bonferroni, P<0.05", "result": "tended to decrease"}, {"measurement": "Mean liver-to-body weight ratio compared with the NASH-Vehicle group", "setting": "[2]; Bonferroni, P<0.05", "result": "significant decreases"}, {"measurement": "NAS compared with the NASH-Vehicle group", "setting": "[2]; Bonferroni, P<0.05", "result": "significant decreases in NAS; also recorded: significant reductions of NAS"}, {"measurement": "Serum alanine aminotransferase (ALT) levels compared with the NASH-Vehicle group", "setting": "[2]; Bonferroni, P<0.05", "result": "tended to decrease"}, {"measurement": "Serum aspartate aminotransferase (AST) levels compared with the NASH-Vehicle group", "setting": "[2]; Bonferroni, P<0.05", "result": "tended to decrease"}, {"measurement": "F4/80-positive signals and cells in liver compared with the NASH-Vehicle group", "setting": "[2]; F4/80 immunostaining, macrophage marker", "result": "Lower F4/80-positive signals and positive cells"}, {"measurement": "Alpha-SMA mRNA expression", "setting": "[2]; [3]", "result": "1.7 ± 0.4"}, {"measurement": "MCP-1 mRNA expression", "setting": "[2]; [3]", "result": "3.2 ± 2.4"}, {"measurement": "TIMP-1 mRNA expression", "setting": "[2]; [3]", "result": "7.6 ± 3.3"}, {"measurement": "TNF-α mRNA expression", "setting": "[2]; [3]", "result": "4.4 ± 1.9"}, {"measurement": "Liver triglyceride", "setting": "[2]; mean ± SD", "result": "22.4 ± 5.4", "unit": "mg/g liver"}, {"measurement": "Serum ALP", "setting": "[2]; mean ± SD", "result": "358 ± 129", "unit": "U/L"}, {"measurement": "Serum ALT", "setting": "[2]; mean ± SD", "result": "24 ± 4", "unit": "U/L"}, {"measurement": "Serum AST", "setting": "[2]; mean ± SD", "result": "76 ± 24", "unit": "U/L"}, {"measurement": "Sirius red-positive area", "setting": "[2]; mean ± SD, liver sections", "result": "0.86 ± 0.30", "unit": "%"}, {"measurement": "NAS (NAFLD Activity score)", "setting": "[2]; mean ± SD, range 0-8, 10 mg/kg", "result": "4.1 ± 1.0"}, {"measurement": "Lobular inflammation score 0, number of mice", "setting": "[2]; score 0 = No Foci", "result": 1}, {"measurement": "Hepatocyte ballooning score 0, number of mice", "setting": "[2]; score 0 = None", "result": 2}, {"measurement": "Steatosis score 1, number of mice", "setting": "[2]; score 1 = 5-33%", "result": 6}, {"measurement": "Lobular inflammation score 1, number of mice", "setting": "[2]; score 1 = <2 foci/200x", "result": 1}, {"measurement": "Hepatocyte ballooning score 1, number of mice", "setting": "[2]; score 1 = Few balloon cells", "result": 2}, {"measurement": "Lobular inflammation score 2, number of mice", "setting": "[2]; score 2 = 2-4 foci/200x", "result": 6}, {"measurement": "Steatosis score 2, number of mice", "setting": "[2]; score 2 = >33-66%", "result": 2}, {"measurement": "Hepatocyte ballooning score 2, number of mice", "setting": "[2]; score 2 = Many cells/prominent ballooning", "result": 4}, {"measurement": "Inflammatory cell infiltration in the liver", "setting": "[2]; summary of lobular inflammation score and F4/80 immunostaining", "result": "reductions in inflammatory cell infiltration in the liver"}]}
